According to PMC4670726 (2015):
Ends that are not written are not given here.

B14: JNK1 (as used in the fluorescence polarization titrations) (enzyme)
chain: MSRSKRDNNFYSVEIGDSTFTVLKRYQNLKPIGSGAQGIVCAAYDAILERNVAIKKLSRPFQNQTHAKRAYRELVLMKCVNHKNIIGLLNVFTPQKSLEEFQDVYIVMELMDANLCQVIQMELDHERMSYLLYQMLCGIKHLHSAGIIHRDLKPSNIVVKSDCTLKILDFGLARTAGTSFMMTPYVVTRYYRAPEVILGMGYKENVDLWSVGCIMGEMVCHKILFPGRDYIDQWNKVIEQLGTPCPEFMKKLQPTVRTYVENRPKYAGYSFEKLFPDVLFPADSEHNKLKASQARDLLSKMLVIDASKRISVDEALQHPYINVWYDPSEAEAPPPKIPDKQLDEREHTIEEWKELIYKEVMDLEERTKNGVIRGQPSPLGAAVINGSQHPSSSSSVNDVSSMSTDPTLASDTDSSLEAAAGPLGCCR

Tests used:
Assay in all cases: FP
[1] = target: B14
[2] = target: ERK2 (as used in the fluorescence polarization titrations) (human, UniProt P28482 1-360)
[3] = target: p38α (as used in the fluorescence polarization titrations) (human, UniProt Q16539 1-360)
[4] = target: GAB3+ peptide

B1: PDE4B peptide (peptide)
chain: RPTTLPL
modifications: not fully specified
[1]
  Kd: 16.4 µM

B2: AAKG2 peptide (peptide)
chain: KRRSLRVHIP
modifications: not fully specified
[2]
  Kd: 17.5 µM
[3]
  Kd: 8.2 µM

B3: GAB3 peptide (peptide)
chain: RHRDKRLSLNLP
modifications: not fully specified
[2]
  Kd: 22.6 µM
[3]
  Kd: 5.2 µM
[1]
  Kd: 14.5 µM

B4: CCNT2 peptide (peptide)
chain: KEKSGSLKLRIP
modifications: not fully specified
[2]
  Kd: 14.4 µM
[3]
  Kd: 24.5 µM

B5: MKP5 peptide (peptide)
chain: RPQDLNL
modifications: not fully specified
[2]
  Kd: 84.7 µM
[1]
  Kd: 19.3 µM

B6: DOCK5 peptide (peptide)
chain: RPKSLQL
modifications: not fully specified
[2]
  Kd: 31.8 µM
[1]
  Kd: 5.1 µM

B7: APBA2 peptide (peptide)
chain: RPKSLNL
modifications: not fully specified
[1]
  Kd: 10.8 µM

B8: ATF7 peptide (peptide)
chain: DPLHPTL
modifications: also: non-native Glu flanks added at both ends, number not given here
[1]
  Kd: 21.1 µM

B9: MYO9B peptide (peptide)
chain: RPTSLAL
modifications: not fully specified
[1]
  Kd: 15.9 µM

B10: KSR2 peptide (peptide)
chain: KKKSKPLNLKIH
modifications: not fully specified
[2]
  Kd: 13.5 µM
[3]
  Kd: 4.9 µM
[1]
  Kd: 24.7 µM

B11: DOCK7 peptide (peptide)
chain: RPASLNL
modifications: not fully specified
[2]
  Kd: 51.2 µM
[1]
  Kd: 7.3 µM

B12: DCX peptide (peptide)
chain: RKHKDLYLPL
modifications: not fully specified
[3]
  Kd: 29.5 µM
[1]
  Kd: 16.7 µM

B13: RHDF1 peptide (peptide)
chain: LQRKKPPWLKLDIP
modifications: not fully specified
[3]
  Kd: 1.2 µM

## B14
[4]
  Kd: 13.2 µM

B15: JAZF1 peptide (peptide)
chain: KKIQPKLSLT
modifications: not fully specified
[2]
  Kd: 15 µM
[3]
  Kd: 8.9 µM

B16: IRS1 peptide (peptide)
chain: RPTRLSL
modifications: not fully specified
[3]
  Kd: 74.6 µM
[1]
  Kd: 3.5 µM
